For the experiment, the target named is Right-Handed Coiled Coil-Nanotube (RHCC-NT) (Staphylothermus marinus). Nature of the experiment: crystal structure; RHCC-NT incubated with o-carborane at 50 °C for 1 week, 10 mg/mL in 10 mM TRIS pH 7.5, 154 mM NaCl; vapour diffusion; data at 100 K; 2.2 Å; molecular replacement with PDB 1YBK.

By stoichiometry N is commonly meant the number of molecules, sites or subunits per partner or assembly. With “Right-Handed Coiled Coil-Nanotube (RHCC-NT) (domain or fragment)”, the stoichiometry N worked out at 4.

For the origin of these results see article PMC8324832.
